In one assay the test system is CD30(−) U-266 cells. Description: Binding to CD30(−) cells. To be noted: CD30(−) U-266 cells (not shown).
The next assay concerns Granta-519. Description: In vitro cytotoxicity, Granta-519. It counts as cell-based. The conditions noted are these: co-administration IC50 vs co-conjugate IC50.
Another assay has as its system SU-DHL-16. The assay is described as follows: In vitro cytotoxicity, SU-DHL-16. Type of assay: cell-based. The conditions noted are these: co-administration IC50 vs co-conjugate IC50.
The test system of another assay is Nalm-6. The assay is described as follows: In vitro cytotoxicity, Nalm-6. It counts as cell-based. To be noted: hBU12 conjugates targeting CD19.
The test system of a further assay is RL. Description: In vitro cytotoxicity, RL. Type of assay: cell-based. The conditions noted are these: hBU12 conjugates targeting CD19.
The next assay relates to WSU-DLCL2. The assay is described as follows: In vitro cytotoxicity, WSU-DLCL2. It counts as cell-based. The conditions noted are these: hBU12 conjugates targeting CD19.
The test system of the next assay is Raji. Description: In vitro cytotoxicity, Raji. It counts as cell-based. To be noted: hBU12 conjugates targeting CD19.
In assay [1] the test system is MCF-7 breast carcinoma cells. The assay is described as follows: Colony forming assay, MCF-7. It counts as cell-based. To be noted: ADC 100 ng/mL for 48 hours, recovery 7-9 days, N=2. The protocol: This analysis was conducted on either JHH-7 (hepatocarcinoma cells) or MCF-7 (LIV-1positive) cells using antigen specific dual-auristatin ADCs. […] A dual-auristatin ADC targeting the LIV-1antigen on MCF-7 cells also allowed for less outgrowth of resistant colonies compared to single-drug ADCs.
For testing of LIV-1 targeted ADCs, MCF-7 breast carcinoma cells (ATCC) were plated in 6-well tissue culture plates at a density of 10,000 cells per well. ADCs were added to cells at a concentration of 100 ng/mL for 48 hours. At this time, media was removed and cells were washed with PBS. Fresh media was added and the cells allowed to recover for 7-9 days. Cells were then washed with PBS, fixed with 3.7% paraformaldehyde, stained with 0.5% crystal violet, and then counted. Each condition was conducted with N=2.

Turning to “cAC10: Chimeric anti-CD30 monoclonal antibody, naked antibody”, in the assay with CD30(−) U-266 cells, the “binding to CD30(−) U-266 cells” value is on record as “Neither cAC10 or cAC10-4-(3-1) bound”.

B1: hBU12 Co-Conjugate (conjugate, chains of the INN, looked up)
VH: QVQLQESGPGLVKPSQTLSLTCTVSGGSISTSGMGVGWIRQHPGKGLEWIGHIWWDDDKRYNPALKSRVTISVDTSKNQFSLKLSSVTAADTAVYYCARMELWSYYFDYWGQGTLVTVSS
VL: EIVLTQSPATLSLSPGERATLSCSASSSVSYMHWYQQKPGQAPRLLIYDTSKLASGIPARFSGSGSGTDFTLTISSLEPEDVAVYYCFQGSVYPFTFGQGTKLEIK
modifications: co-conjugate with two drug payloads
On to B1, for which the Fold difference amounted to 41.5 with Granta-519 and 2.5 with SU-DHL-16.

B2: hBU12-Linking Assembly Unit Aa-Comp. Aa (8) (conjugate, chains of the INN, looked up)
VH: QVQLQESGPGLVKPSQTLSLTCTVSGGSISTSGMGVGWIRQHPGKGLEWIGHIWWDDDKRYNPALKSRVTISVDTSKNQFSLKLSSVTAADTAVYYCARMELWSYYFDYWGQGTLVTVSS
VL: EIVLTQSPATLSLSPGERATLSCSASSSVSYMHWYQQKPGQAPRLLIYDTSKLASGIPARFSGSGSGTDFTLTISSLEPEDVAVYYCFQGSVYPFTFGQGTKLEIK
modifications: linker assembly with compound Aa
Take B2: the IC50 is listed as 8 ng/mL in the assay with Nalm-6 and 4 ng/mL in the assay on RL.

B3: hBU12-Linking Assembly Unit Aa-Comp. Aa (8)-Comp. Ah (8) (conjugate, chains of the INN, looked up)
VH: QVQLQESGPGLVKPSQTLSLTCTVSGGSISTSGMGVGWIRQHPGKGLEWIGHIWWDDDKRYNPALKSRVTISVDTSKNQFSLKLSSVTAADTAVYYCARMELWSYYFDYWGQGTLVTVSS
VL: EIVLTQSPATLSLSPGERATLSCSASSSVSYMHWYQQKPGQAPRLLIYDTSKLASGIPARFSGSGSGTDFTLTISSLEPEDVAVYYCFQGSVYPFTFGQGTKLEIK
modifications: linker assembly with compounds Aa and Ah
On to B3, for which the IC50 with RL worked out at 2 ng/mL; in the assay on WSU-DLCL2, 2 ng/mL; in the assay on Raji it was 5 ng/mL.

B4: hBU12-Linking Assembly Unit Aa-Comp. Ah (8) (conjugate, chains of the INN, looked up)
VH: QVQLQESGPGLVKPSQTLSLTCTVSGGSISTSGMGVGWIRQHPGKGLEWIGHIWWDDDKRYNPALKSRVTISVDTSKNQFSLKLSSVTAADTAVYYCARMELWSYYFDYWGQGTLVTVSS
VL: EIVLTQSPATLSLSPGERATLSCSASSSVSYMHWYQQKPGQAPRLLIYDTSKLASGIPARFSGSGSGTDFTLTISSLEPEDVAVYYCFQGSVYPFTFGQGTKLEIK
modifications: linker assembly with compound Ah
Consider B4, for which the IC50 in the assay on Nalm-6 worked out at 9 ng/mL; in the assay on RL, 60 ng/mL; in the assay with WSU-DLCL2, 7 ng/mL; in the assay with Raji, 97 ng/mL.

B5: hBU12-Linking Assembly Unit Aa-Comp. Aa (16) (conjugate, chains of the INN, looked up)
VH: QVQLQESGPGLVKPSQTLSLTCTVSGGSISTSGMGVGWIRQHPGKGLEWIGHIWWDDDKRYNPALKSRVTISVDTSKNQFSLKLSSVTAADTAVYYCARMELWSYYFDYWGQGTLVTVSS
VL: EIVLTQSPATLSLSPGERATLSCSASSSVSYMHWYQQKPGQAPRLLIYDTSKLASGIPARFSGSGSGTDFTLTISSLEPEDVAVYYCFQGSVYPFTFGQGTKLEIK
modifications: Linking Assembly Unit Aa-Compound Aa drug conjugate
Turning to B5, the IC50 with WSU-DLCL2 worked out at 1.5 ng/mL; in the assay with Raji it was 2.1 ng/mL.

B6: hBU12-Linking Assembly Unit Aa-Comp. Ab (8) (conjugate, chains of the INN, looked up)
VH: QVQLQESGPGLVKPSQTLSLTCTVSGGSISTSGMGVGWIRQHPGKGLEWIGHIWWDDDKRYNPALKSRVTISVDTSKNQFSLKLSSVTAADTAVYYCARMELWSYYFDYWGQGTLVTVSS
VL: EIVLTQSPATLSLSPGERATLSCSASSSVSYMHWYQQKPGQAPRLLIYDTSKLASGIPARFSGSGSGTDFTLTISSLEPEDVAVYYCFQGSVYPFTFGQGTKLEIK
modifications: linker assembly with compound Ab
B6: the IC50 in the assay on Nalm-6 worked out at 5 ng/mL; with RL it was 340 ng/mL.

B7: hBU12-Linking Assembly Unit Aa-Comp. Ab (8) Comp. Aa (8) (conjugate, chains of the INN, looked up)
VH: QVQLQESGPGLVKPSQTLSLTCTVSGGSISTSGMGVGWIRQHPGKGLEWIGHIWWDDDKRYNPALKSRVTISVDTSKNQFSLKLSSVTAADTAVYYCARMELWSYYFDYWGQGTLVTVSS
VL: EIVLTQSPATLSLSPGERATLSCSASSSVSYMHWYQQKPGQAPRLLIYDTSKLASGIPARFSGSGSGTDFTLTISSLEPEDVAVYYCFQGSVYPFTFGQGTKLEIK
modifications: linker assembly with compounds Ab and Aa
Regarding B7, the concentration for half-maximal inhibition (IC50) is 2 ng/mL with Nalm-6, 1 ng/mL with RL and 1.6 ng/mL with Raji.

B8: hBU12-Linking Assembly Unit Aa-Comp. Ab (16) (conjugate, chains of the INN, looked up)
VH: QVQLQESGPGLVKPSQTLSLTCTVSGGSISTSGMGVGWIRQHPGKGLEWIGHIWWDDDKRYNPALKSRVTISVDTSKNQFSLKLSSVTAADTAVYYCARMELWSYYFDYWGQGTLVTVSS
VL: EIVLTQSPATLSLSPGERATLSCSASSSVSYMHWYQQKPGQAPRLLIYDTSKLASGIPARFSGSGSGTDFTLTISSLEPEDVAVYYCFQGSVYPFTFGQGTKLEIK
modifications: linker assembly with compound Ab
Consider B8, for which the half-maximal inhibitory concentration (IC50) stood at 8.6 ng/mL in the assay with WSU-DLCL2 and 6.9 ng/mL with Raji.

B9: hLIV22-Linking Assembly Unit Aa (8)-MMAE (16) (conjugate, chains of the INN, looked up)
VH: QVQLVQSGAEVKKPGASVKVSCKASGLTIEDYYMHWVRQAPGQGLEWMGWIDPENGDTEYGPKFQGRVTMTRDTSINTAYMELSRLRSDDTAVYYCAVHNAHYGTWFAYWGQGTLVTVSS
VL: DVVMTQSPLSLPVTLGQPASISCRSSQSLLHSSGNTYLEWYQQRPGQSPRPLIYKISTRFSGVPDRFSGSGSGTDFTLKISRVEAEDVGVYYCFQGSHVPYTFGGGTKVEIK
modifications: Linking Assembly Unit Aa-MMAE conjugate
B9 returned a Colony forming units in assay [1] of 42.5.

B10: hLIV22-Linking Assembly Unit Aa (8)-Comp. Aa (8)-MMAE (8) (conjugate, chains of the INN, looked up)
VH: QVQLVQSGAEVKKPGASVKVSCKASGLTIEDYYMHWVRQAPGQGLEWMGWIDPENGDTEYGPKFQGRVTMTRDTSINTAYMELSRLRSDDTAVYYCAVHNAHYGTWFAYWGQGTLVTVSS
VL: DVVMTQSPLSLPVTLGQPASISCRSSQSLLHSSGNTYLEWYQQRPGQSPRPLIYKISTRFSGVPDRFSGSGSGTDFTLKISRVEAEDVGVYYCFQGSHVPYTFGGGTKVEIK
modifications: Linking Assembly Unit Aa, Compound Aa, MMAE conjugate
Regarding B10, the Colony forming units in assay [1] was determined as 19.5.

By IC50 is commonly meant the midpoint of a concentration-inhibition curve. Low values mean higher potency, high ones lower potency.

The values above are taken from US11541128B2, “Multi-drug antibody drug conjugates” (Seagen Inc., priority 2016, dated 2023).
